Measurements as given in patent US6962792B1, “Methods and means for inhibition of Cdk4 activity” (Cyclacel Limited, priority 1996, dated 2005).
Entries after “also recorded” stand apart in the source; their conditions may differ. Where two headings read alike, the source gives them in different places. Each block holds one molecule with its values, some of them ahead of it. Where a SMILES comes first, the peptide text is derived from it. Where no end group is shown, it is not given here.

Assays:
[1] = molecular target: T1, cyclin D1-Cdk4 (Homo sapiens, UniProt P11802+P24385); test: Cyclin D1-Cdk4 GST-Rb phosphorylation assay (Sf9 insect cell lysate); format: biochemical
T1 construct: made in house; host or cells: Sf9 insect cells, baculovirus co-infection; unpurified lysate
Description: (§1) “x” indicates no addition of peptide.
(§2) Cyclins and CDKs—Cdk4 and cyclin D1, Cdk2 and cyclin E and Cdc2 and cyclin B were co-expressed in Sf9 insect cells infected with the appropriate baculovirus constructs. The cells were harvested two days after infection by low speed centrifugation and the pellet was lysed in an equal volume of 10 mM Hepes, pH 7.4 containing: 10 mM NaCl, 1 mM EDTA, and 0.1 mM phenylmethane sulphonyl fluoride, 2 mM DTT and centrifuged at 14000×g for 15 min. The supernatant was removed, aliquoted and immediately frozen in liquid nitrogen. Thawed lysate was used only once and was never refrozen. Labelled Cdk4 and cyclin D1 were produced by translation in the presence of [^35S] methionine using a rabbit reticulocyte lysate in vitro translation kit (Promega).
(§3) Phosphorylation of GST-Rb—Cdk4 activity was measured using the cyclin D1-Cdk4 containing insect cell lysate described above. Extract (1 μl) was added to a final reaction volume of 10 μl, containing: 50 mM Hepes, pH 7.4, 10 mM MgCl2, 2.5 mM EGTA, 1 mM DTT, 10 mM β-glycerophosphate, 1 mM NaF, 10 mM PKI, 50 μM ATP containing [^32P] ATP (1000 cpm/pMol) and 0.5 μg GST-Rb. […] The samples were analysed by SDS-PAGE on 12% gels followed by auto-radiography and quantification using a Bio-Imager.

[2] = molecular target: T2, cyclin D1-Cdk4 (Homo sapiens, UniProt P11802); test: as above; format: biochemical; conditions: GST-Rb substrate; read-out: I0.5 for inhibition of Cdk4 activity
T2 construct: made in house; host or cells: Sf9 insect cells, baculovirus co-infection; unpurified lysate
Description: as §1, §2, §3

[3] = molecular target: T1, cyclin D1-Cdk4; test: Peptide phosphorylation by cyclin D1-Cdk4; format: biochemical; conditions: conditions where 2.4 nMol 32P incorporated per nMol GST-Rb
Description: The biotinylated peptides (1 μg) were incubated for 30 min at 30° C. in a final volume of 20 μl containing: 50 mM Hepes, pH 7.4, 10 mM MgCl2, 2.5 mM EGTA, 1 mM DTT, 10 mM β-glycerophosphate, 1 mM NaF, 10 mM PKI, 50 μM ATP containing [^32P]ATP (6000 cpm/pMol) and either 1 μl of cyclin D1-Cdk4 insect cell lysate, 1 μl of uninfected insect cell lysate or 0.02 mU of protein kinase C plus 0.5 mM CaCl2, 100 mg/ml phosphatidyl serine and 20 mg/ml diacylglycerol. The reactions were stopped by heating at 60° C. for 5 min and streptavidin agarose beads were added (10 μl packed cell volume washed with 3×PBS) and incubated with shaking at 4° C. for 30 min. The beads were washed extensively with PBS containing 3% (v/v) Tween-20 and the incorporation of radioactivity into the peptides was determined by Cerenkov counting.

[4] = molecular target: T3, cyclin B-Cdc2 (Homo sapiens, UniProt P06493); test: Cyclin B-Cdc2 histone H1 kinase assay; format: biochemical; conditions: concentrations up to 20 μM
T3 construct: made in house; host or cells: Sf9 insect cells, baculovirus co-infection; unpurified lysate
Description: The conditions were identical to those described in the Experimental Procedures for cyclin D1-Cdk4 except that histone H1 (0.5 μg/assay) was used as the substrate for cyclin B-Cdc2.

[5] = test system: Soas2 cells; test: Cell cycle arrest in Rb negative cells; format: cell-based
[6] = test system: HaCaT cells; test: Cell cycle measurements by BrdU/FACS in HaCaT cells; format: cell-based, human; conditions: for G1-, S-phase distribution / G1 arrest: proliferating HaCaT cells, 24 hours, Peptide-I and Peptide-III 25 μM, Peptide-II 50 μM
Description: The peptides were added to proliferating HaCaT cells, grown in DMEM plus 10% FCS. The cells were incubated for 24 hours pulse labelled during with 15 μM BrdU, fixed and then analysed by FACS.
Carrier linked peptides were designed for delivery into proliferating HaCaT cells (see FIG. 9). Cells were seeded on 30mm culture plates and grown to 50% confluency in Dulbecco's modified Eagle's medium (DMEM) supplemented with 10% (v/v) foetal calf serum (FCS). Peptides were added to the medium and the cells were incubated for 24 hours. During the last 30 minutes of the incubation the cells were pulse labelled in the presence of 15 μM BrdU. The cells were trypsinised, fixed in absolute alcohol and prepared for FACS analysis using a single laser flow cytometer (Becton-Dickinson, FACScan) as previously described (Renzing et al, 1996).

[7] = test system: pRb phosphorylation in HaCaT cells; test: pRb phosphorylation in HaCaT cells (Western blot); format: cell-based, human; conditions: serum-starved HaCaT cells released with 10% FCS, 24 hour time course; Peptide-I 25 μM, Peptide-II 50 μM
Excerpt: Samples were taken at the times shown and analysed by SDS-PAGE/Western blot stained for pRb. pRb represents hypophosphorylated Rb protein and pRb* refers to hyperphosphorylated Rb protein. It should be pointed out that equal amounts of total protein were loaded per lane and that the antibody appears to preferentially recognise phosphorylated forms of the Rb protein. Peptide I corresponds with SEQ ID NO:24; peptide II corresponds with SEQ ID NO:25; and peptide III corresponds with SEQ ID NO:26.
HaCaT cells were seeded on 30 mm culture plates at 25% confluency in DMEM with 10% FCS. The FCS was withdrawn after 24 hours and the cells were starved for 72 hours. At the end of this period the medium was supplemented with 10% FCS and carrier linked peptides. Samples were taken over a 24 hour time course and the cells were lysed in RIPA buffer (50 mM Tris-HCl, pH 8.0, containing 150 mM NaCl, 1.0% (v/v) NP-40, 0.5% (w/v) DOC, 0.1% (w/v) SDS, 1 mM PMSF, 0.1 mg/ml aprotinin and 0.5 mg/ml leupeptin) for 30 minutes at 4° C. The phosphorylation statues of pRb was determined by Western blot analysis, as previously described (Fahraeus et al, 1996) except that the blot was probed with a pRb polyclonal antibody (C-15, Santa Cruz).

[8] = molecular target: T1, cyclin D1-Cdk4; test: Relief of p21WAF1 inhibition in cyclin D1-Cdk4 GST-Rb phosphorylation assay; format: biochemical; conditions: peptide 1, 5, 17 & 34 μM, fixed concentration of p21WAF1
[9] = molecular target: cyclin D1-Cdk4 complex co-expressed in Sf9 insect cells (lysate) (UniProt P11802); test: cell-based or functional assay
[10] = molecular target: cyclin D1-Cdk4 complex co-expressed in Sf9 insect cells (lysate) (UniProt P11802 1-303; P24385 1-295); test: cell-based or functional assay
[11] = molecular target: T4, cyclin D1 labelled with [35S]methionine, translated in rabbit reticulocyte lysate (human, UniProt P24385 1-295, [35S]methionine label); test: peptide precipitation of 35S-labelled protein from reticulocyte lysate, SDS-PAGE and autoradiography
T4 construct: also called 35S-labelled cyclin D1
Description: (§4) After extensive washing bound proteins were analysed using SDS-PAGE followed by autoradiography. The bands were quantified using a Bio-Imager and Whole Band Analysis Software (Millipore).
(§5) Peptide (1.5 μg) was diluted in 100 μl of PBS and incubated with 10 μl of packed streptavidin-agarose beads (Sigma) for 1 h at room temperature. Unbound peptide was removed by extensive washing with PBS and the beads, plus bound peptide, were incubated for 1 h at 4° C. with reticulocyte lysate containing either Cdk4 or cyclin D1 labelled with [^35S] methionine. […] The bound protein was analysed by SDS-PAGE followed by auto-radiography and quantification of the ^35S-labelled protein using a Bio-Imager and Whole Band Analysis Software (Millipore).

[12] = molecular target: T5, Cdk4 labelled with [35S]methionine, translated in rabbit reticulocyte lysate (human, UniProt P11802 1-303, [35S]methionine label); test: as above
T5 construct: also called 35S-labelled Cdk4
T5 sequence (P11802 whole entry): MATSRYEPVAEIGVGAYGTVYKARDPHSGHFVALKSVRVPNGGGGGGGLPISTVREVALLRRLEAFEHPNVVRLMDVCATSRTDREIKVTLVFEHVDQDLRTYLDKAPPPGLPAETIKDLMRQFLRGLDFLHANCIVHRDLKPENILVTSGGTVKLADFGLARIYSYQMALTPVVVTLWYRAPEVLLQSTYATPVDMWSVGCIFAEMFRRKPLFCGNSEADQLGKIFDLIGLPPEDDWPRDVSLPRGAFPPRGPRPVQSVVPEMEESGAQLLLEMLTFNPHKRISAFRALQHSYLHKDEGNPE
Description: as §4, §5

Sequence of cyclin D1-Cdk4 complex co-expressed in Sf9 insect cells (lysate) (UniProt P11802 1-303; P24385 1-295) (P11802 whole entry, chain 1 of 2): as the sequence (P11802 whole entry) above
Sequence of cyclin D1-Cdk4 complex co-expressed in Sf9 insect cells (lysate) (UniProt P11802 1-303; P24385 1-295) (P24385 whole entry, chain 2 of 2): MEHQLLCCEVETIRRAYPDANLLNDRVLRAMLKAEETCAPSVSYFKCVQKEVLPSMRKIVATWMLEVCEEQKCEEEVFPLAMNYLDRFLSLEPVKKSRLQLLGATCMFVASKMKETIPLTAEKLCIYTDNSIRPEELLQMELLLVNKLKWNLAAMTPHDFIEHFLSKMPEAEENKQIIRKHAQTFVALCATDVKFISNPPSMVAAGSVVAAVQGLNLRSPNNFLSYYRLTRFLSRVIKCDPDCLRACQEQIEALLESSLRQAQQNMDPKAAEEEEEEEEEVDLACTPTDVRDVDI
T1 sequence (P11802 whole entry): as the sequence (P11802 whole entry) above
T1 sequence (P24385 whole entry): as the sequence (P24385 whole entry, chain 2 of 2) above
T2 sequence (P11802 whole entry): as the sequence (P11802 whole entry) above
T2 sequence (P24385 whole entry, further chain): as the sequence (P24385 whole entry, chain 2 of 2) above
Sequence of cyclin D1-Cdk4 complex co-expressed in Sf9 insect cells (lysate) (UniProt P11802) (P11802 whole entry, chain 1 of 2): as the sequence (P11802 whole entry) above
Sequence of cyclin D1-Cdk4 complex co-expressed in Sf9 insect cells (lysate) (UniProt P11802) (P24385 whole entry, chain 2 of 2, further chain): as the sequence (P24385 whole entry, chain 2 of 2) above
T4 sequence (P24385 whole entry): as the sequence (P24385 whole entry, chain 2 of 2) above
T3 sequence (P06493 whole entry): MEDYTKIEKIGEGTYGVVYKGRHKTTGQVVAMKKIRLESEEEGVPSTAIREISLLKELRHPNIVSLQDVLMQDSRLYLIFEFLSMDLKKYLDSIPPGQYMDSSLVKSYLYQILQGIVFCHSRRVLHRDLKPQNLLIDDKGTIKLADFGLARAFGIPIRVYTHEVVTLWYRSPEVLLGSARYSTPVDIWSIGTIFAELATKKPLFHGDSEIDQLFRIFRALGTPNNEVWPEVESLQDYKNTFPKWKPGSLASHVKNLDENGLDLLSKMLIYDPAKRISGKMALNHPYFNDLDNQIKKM
T3 sequence (P14635 whole entry partner): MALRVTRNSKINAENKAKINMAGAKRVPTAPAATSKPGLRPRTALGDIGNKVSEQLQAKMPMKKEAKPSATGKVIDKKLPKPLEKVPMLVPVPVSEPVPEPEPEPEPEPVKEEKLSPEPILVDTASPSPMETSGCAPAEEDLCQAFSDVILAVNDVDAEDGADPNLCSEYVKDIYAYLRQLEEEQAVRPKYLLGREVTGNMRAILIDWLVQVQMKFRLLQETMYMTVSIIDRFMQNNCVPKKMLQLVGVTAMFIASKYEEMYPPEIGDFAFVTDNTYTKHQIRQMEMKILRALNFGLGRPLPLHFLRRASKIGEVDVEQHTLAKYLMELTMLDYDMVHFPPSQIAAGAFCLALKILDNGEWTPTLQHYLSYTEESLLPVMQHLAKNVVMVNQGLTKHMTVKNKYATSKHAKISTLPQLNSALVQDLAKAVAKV

cyclin D1-Cdk4 inhibitory activity [1]: only weak inhibition
inhibition of cyclin D1-Cdk4 activity ([1]; peptide at 17 μM): inhibited cyclin D1-Cdk4 activity
Molecule: 8: synthetic peptide of the p21WAF1 library, SEQ ID NO:8 (AEEDHVDLSLSCTLVPRSGE) [compound 8]

inhibition at 17 µM ([1]; peptide at 17 μM, read-out: inhibition of kinase activity): ~80%
Molecule: CC(C)C[C@H](NC(=O)[C@H](CCCNC(=N)N)NC(=O)[C@H](CCCNC(=N)N)NC(=O)[C@H](CS)NC(=O)[C@H](C)NC(=O)[C@@H](N)CCCCN)C(=O)N[C@@H](Cc1ccccc1)C(=O)NCC(=O)N1CCC[C@H]1C(=O)N[C@H](C(=O)N[C@@H](CC(=O)O)C(=O)N[C@@H](CO)C(=O)N[C@@H](CCC(=O)O)C(=O)N[C@@H](CCC(N)=O)C(=O)N[C@@H](CC(C)C)C(=O)N[C@@H](CO)C(=O)N[C@@H](CCCNC(=N)N)C(=O)N[C@@H](CC(=O)O)C(=O)N[C@@H](CS)C(=O)N[C@@H](CC(=O)O)C(=O)O)C(C)C [peptide 2] (H-KACRRLFGPVDSEQLSRDCD-OH; C-terminus assumed)
substrate for cyclin D1-Cdk4 [3]: neither peptide 2 nor peptide 10 were substrates for cyclin D1-Cdk4
effect on Cdc2-cyclin B histone H1 kinase activity [4]: neither peptide 2 nor peptide 10 had a significant effect

fold lower I0.5 in vitro than free peptide ([1]; carrier linked versus free peptide, data not shown): approximately 50 fold
Molecule: Peptide-II: truncated peptide 10 coupled to carrier peptide, SEQ ID NO:25 (KRRLIFSKRQIKIWFQNRRMKWKK)
G1-, S-phase distribution / G1 arrest [6]: effectively promoted a G1-phase arrest
fold less active as growth suppressor than Peptide-I ([6]; versus Peptide-I): 2 fold
phosphorylation status of pRb [7]: totally prevented the phosphorylation of pRb

I0.5 for inhibition of cyclin D1-Cdk4 activity [9]: 16.3 µM
Molecule: p16INK4 derived peptide (Fahraeus et al., 1996)

cyclin D1-Cdk4 inhibitory activity ([1]; concentrations of up to 35 μM): no inhibitory activity
Molecule: peptide 4: residues 46-65 of p21WAF1, SEQ ID NO:4, Biotin-SGSG spacer (RERWNFDFVTETPLEGDFAW; not fully specified (N-terminus, C-terminus))
cyclin D1-Cdk4 inhibitory activity [1]: no detectable activity; also recorded: no Cdk4 inhibitory activity

I0.5 for inhibition of Cdk4 activity (GST-Rb phosphorylation) [10]: 0.1 µM
B2: peptide 11 (extreme C-terminal peptide of p21^WAF1) (peptide)
peptide: H-TSMTDFYHSKRRLIFSKRKPSGSG
modifications: not fully specified (C-terminus); also: biotin on C-terminal SGSG spacer, order not given here

fold decrease in fold I0.5 in vitro against the free truncated peptide 10 [10]: ~50 fold
Molecule: KRRLIFSKRQIKIWFQNRRMKWKK [Peptide-II (truncated peptide 10 linked to carrier peptide)]

binding result [11]: no binding
B3: peptide 4 (residues 46-65 of p21^WAF1) (peptide)
peptide: H-RERWNFDFVTETPLEGDFAWSGSG
modifications: not fully specified (C-terminus); also: biotin on C-terminal SGSG spacer, order not given here
notes: Synthetic biotinylated peptide

Second part, the molecule before the results:

Molecule: CC[C@H](C)[C@H](NC(=O)[C@H](CC(C)C)NC(=O)[C@H](CCCNC(=N)N)NC(=O)[C@H](CCCNC(=N)N)NC(=O)[C@@H](N)CCCCN)C(=O)N[C@@H](Cc1ccccc1)C(=O)N[C@@H](CO)C(=O)N[C@@H](CCCCN)C(=O)O (H-KRRLIFSK-OH; C-terminus assumed)
cyclin D1-Cdk4 inhibitory activity [1]: completely inhibit cyclin D1-Cdk4 activity
fold higher I0.5 than full length peptide ([1]; versus full length peptide 10): approximately 1000 fold
IC50 [2]: ~100 µM

Molecule: Peptide-I: peptide 10 with M to A at position 7 synthesised onto Antennapedia carrier peptide, SEQ ID NO:24 (KRRQTSATDFYHSKRRLIFSRQIKIWFQNRRMKWKK)
cell cycle arrest / G1 population in pRb negative cells [5]: increase in the population of cells in G1 phase
G1-, S-phase distribution / G1 arrest [6]: number of cells entering S-phase in the presence of Peptide-I was dramatically reduced and the G1 population showed a concomitant increase
phosphorylation status of pRb [7]: pRb remained hypophosphorylated

Molecule: Peptide-III: carrier linked control peptide 10 lacking the last 4 amino acids (LIFS), SEQ ID NO:26 (RQTSMTDFYHSKRRRQIKIWFQNRRMKWKK)
G1-, S-phase distribution / G1 arrest [6]: no detectable effect on the ability of HaCaT cells to enter S-phase

Molecule: R-A mutant: peptide 10 with R-A at residue 15, equivalent to residue 155 of the full length protein (KRRQTSMTDFYHSKARLIFSSGSG)
block of inhibitory activity of full length p21WAF1 [8]: able to block the inhibitory activity of full length p21^WAF1

Molecule: peptide 11: extreme C-terminal peptide of p21WAF1, SEQ ID NO:11 (TSMTDFYHSKRRLIFSKRKP)
cyclin D1-Cdk4 inhibitory activity [1]: potent inhibitor of Cdk4 activity
inhibition of cyclin D1-Cdk4 activity ([1]; peptide at 17 μM): completely inhibited enzyme activity

Molecule: KRRQTSMTDFYHSKRRLIFSSGSG (not fully specified; Biotin-SGSG spacer at the C-terminus; free N-terminus) [peptide 10 (residues 141-160 of p21^WAF1)]
I0.5 for inhibition of Cdk4 activity (GST-Rb phosphorylation) [10]: 0.1 µM

B1: peptide 10 mutant with R-A at residue 15 of peptide 10 (residue 155 of the full length protein) (peptide)
peptide: H-KRRQTSMTDFYHSKARLIFSSGSG
modifications: not fully specified (C-terminus); also: biotin on C-terminal SGSG spacer, order not given here
loss of inhibitory activity against cyclin D1-Cdk4 relative to peptide 10 [10]: > 60%

Molecule: KRRLIFSK [untagged eight amino acid peptide KRRLIFSK]
fold I0.5 against the full length peptide 10 [10]: ~1000 fold

B4: peptide 2 (residues 16-35 of p21^WAF1) (peptide)
peptide: H-KACRRLFGPVDSEQLSRDCDSGSG
modifications: not fully specified (C-terminus); cysteine pairing not given here; also: biotin on C-terminal SGSG spacer, order not given here
notes: Synthetic biotinylated peptide, captured on streptavidin-agarose in the precipitation assay; The order of biotin and SGSG at the C-terminus is not spelled out
I0.5 for inhibition of Cdk4 activity (GST-Rb phosphorylation) [10]: 2 µM
binding result [12]: no binding
